Our source for the Kd values is article PMC9492806.

This assay deals with Recombinant human IGF-II R (cation-independent mannose-6-phosphate receptor, CI-MPR) (human) (UniProt P11717). The assay is described as follows: SPR. (In general: In SPR one partner is held on a chip, and binding of the other changes the refractive index at the surface.)

Consider “trastuzumab M6P-glycoform 7 (trastuzumab carrying the bis-phosphorylated heptasaccharide moiety at the Fc glycosylation site) (antibody)”, for which the Kd came out at 5.4 nM. In the case of “cetuximab M6P-glycoform 10 (cetuximab carrying the bis-phosphorylated heptasaccharide moiety at the Fc glycosylation site) (antibody)”, the Kd came to 29.6 nM.

Consider “cetuximab M6P-glycoform 9 (cetuximab carrying the M6P tetrasaccharide moiety at the Fc glycosylation site) (antibody)”, for which the dissociation constant Kd stood at 70.3 nM. Under “trastuzumab M6P-glycoform 6 (trastuzumab carrying the M6P-Man3GlcNAc2 glycan at the Fc glycosylation site) (antibody)” stands 700 nM.

As to “trastuzumab M6P-glycoform 3 (trastuzumab carrying the M6P tetrasaccharide moiety at the Fc glycosylation site) (antibody)”, the Kd was 28.6 nM.

A word on the Kd: it is the concentration at which binding is half-saturated.
